Laboratory results published in article PMC10716049.

Experiments:
RNAPII-CTD = assay: confocal fluorescence microscopy, AR AD partitioning into preassembled droplets; settings: 5 µM RNAPII-CTD, 50 mM NaCl, 10% ficoll, 1 µM AR AD; parent: est. 70; read off a plot
MED1-IDR = assay: as above; settings: 15 µM MED1-IDR, 20 mM NaCl, 10% ficoll, 1 µM AR AD; parent: est. 97; read off a plot

response (RNAPII-CTD): 25 arb.u.
response (MED1-IDR): 80 arb.u.
Substance: AR AD WT* 22YtoS
